From US20070049521A1

What was measured:
[1] = molecular target: human NPR-C (natriuretic peptide receptor C, clearance receptor), overexpressed on HEK293 cells (human) (UniProt P17342); experiment: cell-based or functional assay
[2] = molecular target: NPR-C on ATDC5 cells (mouse chondrogenic cell line) (mouse) (UniProt P70180); experiment: displacement of 125I-Ostn[83-133] from ATDC5 cells
NPR-C on ATDC5 cells (mouse chondrogenic cell line) (mouse), sequence (P70180 41-536): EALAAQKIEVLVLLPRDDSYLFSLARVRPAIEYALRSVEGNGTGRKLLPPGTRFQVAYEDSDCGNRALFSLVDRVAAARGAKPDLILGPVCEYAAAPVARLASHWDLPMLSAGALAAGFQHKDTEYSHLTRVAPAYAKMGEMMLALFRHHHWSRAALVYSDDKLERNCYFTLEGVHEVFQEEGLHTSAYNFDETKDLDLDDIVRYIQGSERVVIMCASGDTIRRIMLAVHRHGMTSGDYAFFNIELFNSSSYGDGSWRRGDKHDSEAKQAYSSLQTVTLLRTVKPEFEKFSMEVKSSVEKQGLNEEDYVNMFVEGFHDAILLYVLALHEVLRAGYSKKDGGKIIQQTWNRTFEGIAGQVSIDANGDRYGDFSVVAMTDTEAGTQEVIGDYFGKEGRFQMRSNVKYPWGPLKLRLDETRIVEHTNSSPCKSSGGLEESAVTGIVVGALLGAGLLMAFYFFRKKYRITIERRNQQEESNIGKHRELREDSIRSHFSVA

human NPR-C (natriuretic peptide receptor C, clearance receptor), overexpressed on HEK293 cells (human), sequence (P17342 27-541): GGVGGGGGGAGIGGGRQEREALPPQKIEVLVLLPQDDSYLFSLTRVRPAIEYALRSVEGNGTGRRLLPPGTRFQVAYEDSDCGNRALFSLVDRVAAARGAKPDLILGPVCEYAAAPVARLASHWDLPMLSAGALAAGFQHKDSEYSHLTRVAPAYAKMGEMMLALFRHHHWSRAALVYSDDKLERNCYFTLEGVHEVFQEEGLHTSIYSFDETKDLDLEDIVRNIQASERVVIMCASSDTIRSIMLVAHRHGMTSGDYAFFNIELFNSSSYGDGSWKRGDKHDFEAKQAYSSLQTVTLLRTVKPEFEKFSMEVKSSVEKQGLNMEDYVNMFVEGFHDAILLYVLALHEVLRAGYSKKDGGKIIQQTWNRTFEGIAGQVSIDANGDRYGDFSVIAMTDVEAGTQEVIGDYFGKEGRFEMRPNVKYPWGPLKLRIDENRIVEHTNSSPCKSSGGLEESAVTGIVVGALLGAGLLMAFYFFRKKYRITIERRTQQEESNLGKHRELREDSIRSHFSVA

Row | Substance | cGMP levels of NPR-C-expressing HEK293 cells with 0.1 nM ANP and 10 nM rhOstn[27-133] [1] [fold] | IC50 [2] [nM] | maximal inhibition at 1 µM, difference from that of cold Ostn[83-133] [2] [% less]
1 | N-terminal 6 histidine-tagged recombinant human Ostn rhOstn[27-133] (from UniProt G7NYP9 27-133) (ligand) | 8 |  | 
2 | rat C-ANF (peptide) |  | 6.7 | 15
